Test results taken from patent US20230103563A1 (Sanofi, published 2023).

T1: human IL4 (IL004, Millipore) (human, UniProt P05112 25-153)
T1 construct: Bought protein, used as analyte in SPR; also called interleukin IL4
T1 sequence (looked up): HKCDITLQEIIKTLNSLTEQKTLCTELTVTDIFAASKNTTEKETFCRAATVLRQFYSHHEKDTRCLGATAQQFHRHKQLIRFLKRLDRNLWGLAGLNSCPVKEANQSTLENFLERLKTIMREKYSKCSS

B1: protein variant (7), Diabody Split CH2 (included) ("Splite") (bispecific antibody)
chain 1: DIVLTQSPASLAVSLGQRATISCRASESVDSYGQSYMHWYQQKAGQPPKLLIYLASNLESGVPARFSGSGSRTDFTLTIDPVQAEDAATYYCQQNAEDSRTFGGGTKLEIKGGPSVFLFPPKPKDTLMISRTPEVTCVVVDVSHEDPEVKFNWYVDGVEVHNDIQMTQSPASLSVSVGDTITLTCHASQNIDVWLSWFQQKPGNIPKLLIYKASNLHTGVPSRFSGSGSGTGFTLTISSLQPEDIATYYCQQAHSYPFTFGGGTKLEIK
chain 2: EVQLKESGPGLVAPGGSLSITCTVSGFSLTDSSINWVRQPPGKGLEWLGMIWGDGRIDYADALKSRLSISKDSSKSQVFLEMTSLRTDDTATYYCARDGYFPYAMDFWGQGTSVTVSSGGGGSGGGGSGGGGSAKTKPREEQYNSTYRVVSVLTVLHQDWLNGKEYKCKVSNKALPAPIEKTISKAKGQPREQVQLQQSGPELVKPGASVKISCKASGYSFTSYWIHWIKQRPGQGLEWIGMIDPSDGETRLNQRFQGRATLTVDESTSTAYMQLRSPTSEDSAVYYCTRLKEYGNYDSFYFDVWGAGTLVTVSSHHHHHH
notes: Splite diabody with other linkers than variant (4); also called splite diabody
B2: protein variant (5), Diabody Split CH2 (included) ("Splite") (bispecific antibody)
chain 1: B1 chain 1
chain 2: EVQLKESGPGLVAPGGSLSITCTVSGFSLTDSSINWVRQPPGKGLEWLGMIWGDGRIDYADALKSRLSISKDSSKSQVFLEMTSLRTDDTATYYCARDGYFPYAMDFWGQGTSVTVSSGGGAKTKPREEQYNSTYRVVSVLTVLHQDWLNGKEYKCKVSNKALPAPIEKTISKAKGQPREQVQLQQSGPELVKPGASVKISCKASGYSFTSYWIHWIKQRPGQGLEWIGMIDPSDGETRLNQRFQGRATLTVDESTSTAYMQLRSPTSEDSAVYYCTRLKEYGNYDSFYFDVWGAGTLVTVSSHHHHHH
notes: as for B1
B3: protein variant (6), Diabody Split CH2 (included) ("Splite") (bispecific antibody)
chain 1: DIVLTQSPASLAVSLGQRATISCRASESVDSYGQSYMHWYQQKAGQPPKLLIYLASNLESGVPARFSGSGSRTDFTLTIDPVQAEDAATYYCQQNAEDSRTFGGGTKLEIKGGPSVFLFPPKPKDTLMISRTPEVTCVVVDVSHEDPEVKFNWYVDGVEVHNGGGGSGGGGSGGGGSDIQMTQSPASLSVSVGDTITLTCHASQNIDVWLSWFQQKPGNIPKLLIYKASNLHTGVPSRFSGSGSGTGFTLTISSLQPEDIATYYCQQAHSYPFTFGGGTKLEIK
chain 2: B2 chain 2
notes: as for B1
B4: protein variant (1), Diabody-added Split CH2 (diabody split CH2, anti-IL4/anti-IL13) (bispecific antibody)
chain 1: DIVLTQSPASLAVSLGQRATISCRASESVDSYGQSYMHWYQQKAGQPPKLLIYLASNLESGVPARFSGSGSRTDFTLTIDPVQAEDAATYYCQQNAEDSRTFGGGTKLEIKGGGSGGGGQVQLQQSGPELVKPGASVKISCKASGYSFTSYWIHWIKQRPGQGLEWIGMIDPSDGETRLNQRFQGRATLTVDESTSTAYMQLRSPTSEDSAVYYCTRLKEYGNYDSFYFDVWGAGTLVTVSSGGPSVFLFPPKPKDTLMISRTPEVTCVVVDVSHEDPEVKFNWYVDGVEVHN
chain 2: DIQMTQSPASLSVSVGDTITLTCHASQNIDVWLSWFQQKPGNIPKLLIYKASNLHTGVPSRFSGSGSGTGFTLTISSLQPEDIATYYCQQAHSYPFTFGGGTKLEIKGGGSGGGGEVQLKESGPGLVAPGGSLSITCTVSGFSLTDSSINWVRQPPGKGLEWLGMIWGDGRIDYADALKSRLSISKDSSKSQVFLEMTSLRTDDTATYYCARDGYFPYAMDFWGQGTSVTVSSGGGGSGGGGSAKTKPREEQYNSTYRVVSVLTVLHQDWLNGKEYKCKVSNKALPAPIEKTISKAKGQPREHHHHHH
notes: Two chains joined by the disulfide bond of the reassembled IgG1 split CH2 domain
B5: protein variant (4), Diabody Split CH2 (included) ("Splite") (bispecific antibody, IgG1)
chain 1: B3 chain 1
chain 2: B1 chain 2
notes: Split IgG1 CH2 domain inserted between the variable domains; also called splite diabody
B6: protein variant (8), Diabody Split CH2 tetravalent bispecific antibody (bispecific antibody, human IgG4 S228P)
chain 1: B4 chain 1
chain 2: not shown
notes: variant (1) fused to an IgG Fc-domain
B7: protein variant (9), DVD-Split CH2 tetravalent bispecific antibody (bispecific antibody, human IgG4 S228P, kappa)
chain 1: DIVLTQSPASLAVSLGQRATISCRASESVDSYGQSYMHWYQQKAGQPPKLLIYLASNLESGVPARFSGSGSRTDFTLTIDPVQAEDAATYYCQQNAEDSRTFGGGTKLEIKGGGGSGGGGSDIQMTQSPASLSVSVGDTITLTCHASQNIDVWLSWFQQKPGNIPKLLIYKASNLHTGVPSRFSGSGSGTGFTLTISSLQPEDIATYYCQQAHSYPFTFGGGTKLEIKRTVAAPSVFIFPPSDEQLKSGTASVVCLLNNFYPREAKVQWKVDNALQSGNSQESVTEQDSKDSTYSLSSTLTLSKADYEKHKVYACEVTHQGLSSPVTKSFNRGECGGPSVFLFPPKPKDTLMISRTPEVTCVVVDVSHEDPEVKFNWYVDGVEVHN
chain 2: not shown
notes: variant (2) fused to an IgG Fc-domain
B8: protein variant (10), CODV-Split CH2 tetravalent bispecific antibody (bispecific antibody, human IgG4 S228P, kappa)
chain 1: DIVLTQSPASLAVSLGQRATISCRASESVDSYGQSYMHWYQQKAGQPPKLLIYLASNLESGVPARFSGSGSRTDFTLTIDPVQAEDAATYYCQQNAEDSRTFGGGTKLEIKGQPKAAPSDIQMTQSPASLSVSVGDTITLTCHASQNIDVWLSWFQQKPGNIPKLLIYKASNLHTGVPSRFSGSGSGTGFTLTISSLQPEDIATYYCQQAHSYPFTFGGGTKLEIKTKGPSVFRTVAAPSVFIFPPSDEQLKSGTASVVCLLNNFYPREAKVQWKVDNALQSGNSQESVTEQDSKDSTYSLSSTLTLSKADYEKHKVYACEVTHQGLSSPVTKSFNRGECGGPSVFLFPPKPKDTLMISRTPEVTCVVVDVSHEDPEVKFNWYVDGVEVHN
chain 2: not shown
notes: variant (3) fused to an IgG Fc-domain

target: T1, human IL4 (IL004, Millipore); experiment: SPR (Biacore), variant captured with His-capture kit, IL4 as analyte
Experimental: (§1) Binding of antigens to the antibody constructs was measured using surface plasmon resonance (SPR) on a BIAcore 3000 instrument (GE Healthcare) with HBS-EP buffer (GE Healthcare). As antigens human IL4 (IL004, Millipore) and human IL13 (IL012, Millipore) were used. The capture antibody (human antibody capture kit, His capture kit, Fab capture kit, GE Life Sciences) was immobilized via primary amine groups (11000 RU) on a research grade CMS chip (GE Life Sciences) using standard procedures. […] The antigens human IL4 and human IL13 were used as analytes and injected for 240 sec with a dissociation time of 300 sec at a flow rate of 30 μL/min. IL4 and IL13 were used in a dilution series of 0.1 nM to 3 nM and 0.8 nM to 25 nM, respectively. Chip surfaces were regenerated with 2 min injects of the regeneration buffer provided with the capture kit. Sensorgrams were double referenced with a blank chip surface and HBS-EP buffer blanks. Recombinant human neonatal Fc-receptor (FcRn) protein was immobilized via primary amine groups (200 RU) in the sample flow cell compartment of a research grade CMS chip (GE Life Sciences) using standard procedures. The reference flow cell compartment was activated and deactivated without FcRn immobilization to generate a blank chip surface. For the analysis an assay buffer with pH 6.0 was used (150 mM NaCl, 20 mM Na-phosphate, 0.05% surfactant P20, pH6.0). The antibody was used as analyte at 800 nM dilution in assay buffer and injected over reference and sample flow cells for 240 sec with a dissociation time of 300 sec at a flow rate of 30 μL/min. Chip surfaces were regenerated with 2 min injects of HBS-EP buffer at 30 μl/min. Sensorgrams were double referenced with a the blank chip surface and HBS-EP buffer blanks. All data analysis was done using the BIAevaluation software v4.1.

In order of rising Ka:
1. B3  1.14e+10 M⁻¹
2. B1  1.46e+10 M⁻¹
3. B4  6.24e+10 M⁻¹

In order of rising Kd:
1. B4  0.016 nM
2. B2  0.0403 nM
3. B5  0.0648 nM
4. B1  0.0685 nM
5. B3  0.0878 nM

In order of rising koff:
1. B2  0.000165 s⁻¹
2. B5  0.000224 s⁻¹
3. B1  0.000232 s⁻¹
4. B3  0.000261 s⁻¹
5. B4  0.00117 s⁻¹

In order of rising kon:
1. B3  2.97e+06 M⁻¹ s⁻¹
2. B1  3.38e+06 M⁻¹ s⁻¹
3. B5  3.46e+06 M⁻¹ s⁻¹
4. B2  4.1e+06 M⁻¹ s⁻¹
5. B4  7.32e+07 M⁻¹ s⁻¹

target: T1, human IL4 (IL004, Millipore); experiment: SPR (Biacore 3000), construct captured, IL4 as analyte; summary table
Experimental: as §1

In order of falling Kd:
1. B3  0.0878 nM
2. B1  0.0685 nM
3. B5  0.0648 nM
4. B2  0.0403 nM
5. B4  0.016 nM
6. B7  0.00609 nM
7. B6  0.00143 nM
8. B8  0.000222 nM

target: T1, human IL4 (IL004, Millipore); experiment: SPR (Biacore), variant captured with human antibody capture kit, IL4 as analyte
Experimental: as §1

In order of rising Kd:
1. B8  0.000222 nM
2. B6  0.00143 nM
3. B7  0.00609 nM

In order of rising koff:
1. B7  0.000108 s⁻¹
2. B6  0.000135 s⁻¹
3. B8  0.000204 s⁻¹

In order of falling kon:
1. B8  9.19e+08 M⁻¹ s⁻¹
2. B6  9.49e+07 M⁻¹ s⁻¹
3. B7  1.77e+07 M⁻¹ s⁻¹
